Results reported in patent publication US20160230171.

T1: plakoglobin
T1 chain: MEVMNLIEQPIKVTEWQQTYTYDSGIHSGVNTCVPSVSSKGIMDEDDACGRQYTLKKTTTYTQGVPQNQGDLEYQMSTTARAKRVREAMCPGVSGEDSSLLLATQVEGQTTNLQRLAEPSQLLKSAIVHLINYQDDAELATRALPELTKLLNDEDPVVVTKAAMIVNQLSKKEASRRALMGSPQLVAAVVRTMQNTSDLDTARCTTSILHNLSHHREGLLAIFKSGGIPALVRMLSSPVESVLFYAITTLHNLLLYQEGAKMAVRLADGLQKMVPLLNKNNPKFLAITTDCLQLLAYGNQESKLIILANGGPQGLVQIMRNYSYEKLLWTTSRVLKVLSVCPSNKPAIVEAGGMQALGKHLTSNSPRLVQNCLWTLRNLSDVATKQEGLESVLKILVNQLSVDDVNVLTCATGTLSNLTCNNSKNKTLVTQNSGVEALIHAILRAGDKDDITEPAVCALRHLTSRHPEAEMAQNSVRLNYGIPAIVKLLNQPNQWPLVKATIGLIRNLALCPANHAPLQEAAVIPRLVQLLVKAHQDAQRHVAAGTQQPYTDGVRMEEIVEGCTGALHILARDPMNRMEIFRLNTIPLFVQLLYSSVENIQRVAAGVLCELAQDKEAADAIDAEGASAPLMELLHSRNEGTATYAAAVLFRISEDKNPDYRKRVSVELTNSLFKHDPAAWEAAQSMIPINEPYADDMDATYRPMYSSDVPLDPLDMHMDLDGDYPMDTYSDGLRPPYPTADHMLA

T2: 6His-plakoglobin
T2 chain: T1 chain

B1: GST-Trim32 (protein)
chain: MAAAAAASHLNLDALREVLECPICMESFTEEQLRPKLLHCGHTICRQCLEKLLASSINGVRCPFCSKITRITSLTQLTDNLTVLKIIDTAGLSEAVGLLMCRGCGRRLPRQFCRSCGVVLCEPCREADHQPPGHCTLPVKEAAEERRRDFGEKLTRLRELTGELQRRKAALEGVSRDLQARYKAVLQEYGHEERRIQEELARSRKFFTGSLAEVEKSNSQVVEEQSYLLNIAEVQAVSRCDYFLAKIKQADVALLEETADEEEPELTASLPRELTLQDVELLKVGHVGPLQIGQAVKKPRTVNMEDSWAGEEGAASSASASVTFREMDMSPEEVAPSPRASPAKQRSSEAASGIQQCLFLKKMGAKGSTPGMFNLPVSLYVTSQSEVLVADRGNYRIQVFNRKGFLKEIRRSPSGIDSFVLSFLGADLPNLTPLSVAMNCHGLIGVTDSYDNSLKVYTMDGHCVACHRSQLSKPWGITALPSGQFVVTDVEGGKLWCFTVDRGAGVVKYSCLCSAVRPKFVTCDAEGTVYFTQGLGLNVENRQNEHHLEGGFSIGSVGPDGQLGRQISHFFSENEDFRCIAGMCVDARGDLIVADSSRKEILHFPKGGGYSVLIREGLTCPVGIALTPKGQLLVLDCWDHCVKIYSYHLRRYSTP
B2: recombinant Trim32 (protein)
chain: B1 chain

How the values were obtained:
plakoglobin = biological target: T1, plakoglobin
6His-plakoglobin = biological target: T2, 6His-plakoglobin

Protein | polyubiquitination in vitro (E1, UbcH5, ATP, 6His-ubiquitin; nickel column; mass spectrometry) (plakoglobin) | polyubiquitination in vitro (Trim32, UbcH5, ubiquitin, ATP; Ni column; immunoblot with anti plakoglobin) (6His-plakoglobin)
B1 | plakoglobin was polyubiquitinated by Trim32 (as documented by the presence of 13 unique peptides) | 
B2 |  | recombinant Trim32 also polyubiquitinated 6His-plakoglobin, which was expressed and purified from normal muscle
